This assay has as its target T1, rhNR10 (human) (UniProt Q8NI17).
T1 sequence (looked up): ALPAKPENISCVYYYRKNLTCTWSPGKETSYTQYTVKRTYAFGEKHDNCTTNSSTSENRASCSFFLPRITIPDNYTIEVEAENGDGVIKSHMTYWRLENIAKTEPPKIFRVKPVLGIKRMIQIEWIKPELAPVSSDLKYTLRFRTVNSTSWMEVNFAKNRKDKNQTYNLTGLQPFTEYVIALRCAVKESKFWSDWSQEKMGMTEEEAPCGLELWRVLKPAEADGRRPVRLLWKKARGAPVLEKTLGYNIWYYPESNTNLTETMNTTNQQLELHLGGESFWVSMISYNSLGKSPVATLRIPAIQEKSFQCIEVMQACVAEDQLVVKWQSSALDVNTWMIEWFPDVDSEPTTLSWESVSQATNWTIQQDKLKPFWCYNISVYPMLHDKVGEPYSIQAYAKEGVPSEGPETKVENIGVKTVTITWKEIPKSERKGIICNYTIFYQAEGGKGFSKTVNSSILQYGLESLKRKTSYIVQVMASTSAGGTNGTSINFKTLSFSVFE
As to the kind of experiment: SPR (Biacore T100), antibody captured on Protein A, rhNR10 as analyte; reference H0L0 (H0-M58/L0). Background: In SPR one partner is held on a chip, and binding of the other changes the refractive index at the surface.

B1: H0L12 (H chain H0-M58, L chain L12) (antibody, V domains shown)
VH: QVQLVQSGAEVKKPGASVKVSCKASGYTFTGYIMNWVRQAPGQGLEWMGLINPYNGGTSYNQKFKGRVTITADESTSTAYMELSSLRSEDTAVYYCARDGYDDGPYTMDYWGQGTLVTVSS
VL: DIQMTQSPSSLSASVGDRVTITCQTSEDIYSFVAWYQQKPGKAPKLLIYNAQTEAQGVPSRFSGSGSGTDFTLTISSLQPEDFATYYCQHHYDSPLTFGGGTKVEIKR
Molecule B1 returned a fold affinity against H0L0 of 2 fold.

Values taken from patent publication WO2010064456A1.
